Test results published in US5856161, “Tumor necrosis factor receptor-I-associated protein kinase and methods for its use” (Research Development Foundation, dated 1999).

How the values were obtained:
cdc2 = cdc2 (human, UniProt P06493); assay: in vitro translated 35S-labelled protein, pull-down with GST-p80CD on glutathione agarose
Description: (§1) U937 cells lysates (15×10⁶/assay) were prepared and affinity precipitated with the indicated fusion protein as described below. Whole cell extracts were prepared from 2×10⁶ U937 cells by boiling the cells in 100 μl of SDS-sample buffer. Proteins were resolved by 8.5% SDS-polyacrylamide gel electrophoresis, transferred to PVDF membrane, and probed with the indicated antibodies. The mock reaction contains GST-p60Δ8 without U937 cell lysates. […] The samples were subjected to 8.5% SDS-polyacrylamide gel electrophoresis and analyzed by a PhosphorImager. Ten percent of total ^35S-labeled protein (10% input) added to each binding reaction was loaded as a standard. […] The conditions utilized for this experiment were similar to those previously described (Dyson et al., 1989). Briefly, U937 cells were either treated without or with 0.1 nM TNF for 5 minutes. […] Precipitates bound to protein A/G sepharose beads were collected by centrifugation and washed four times in lysis buffer and one time in kinase buffer. The samples were subjected to 8.5% SDS-polyacrylamide gel electrophoresis and analyzed by a PhosphorImager and ImageQuant software.

cdk2 = cdk2 (human (endogenous, U937 cells); not …, UniProt P24941); assay: as above
Description: as §1

cdk4 = cdk4 (human, UniProt P11802); assay: precipitation of U937 cell extracts with p13^suc1 -agarose, immunoblot
Description: U937 cells (4×10^6) were lysed and precipitated with p13^suc1 agarose. Beads were collected by centrifugation, washed with lysis buffer, and boiled in the presence of SDS-sample buffer. […] Immunoreactive bands were detected using horseradish peroxidase-conjugated secondary antibodies and the Enhanced Chemiluminescence system (ECL). […] Equal amounts of U937 cell lysates were incubated with 25 μg of either GST bound to glutathione agarose (−) or p13^suc1-agarose (+) for 1 hour at 4° C. with shaking. The beads were collected by centrifugation, and the supernatant was once more centrifuged. An equal volume of the supernatant was affinity precipitated with GST-p60Δ15. The precipitates were washed extensively, and in vitro kinase assays with histone H1 (5 μg) were performed as described below. Proteins were separated by 8% SDS-polyacrylamide gel electrophoresis and analyzed by a PhosphorImager and ImageQuant software. […] Equal amounts of U937 cell lysates were incubated with either GST bound to glutathione agarose (−) or p13^suc1-agarose (+) for 1 hour at 4° C. with shaking. The beads were collected by centrifugation, and the supernatant was once more centrifuged. An equal volume of the supernatant was affinity precipitated with either GST-p60Δ8 or GST-p60Δ15. The precipitates were washed extensively, and in vitro kinase assays with Rb^110 (0.2 μg) were performed as described below.

Binder	binding result (cdc2)	binding result (cdk2)	binding result (cdk4)
GST-p80CD (receptor) KKKPLCLQREAKVPHLPADKARGTQGPEQQHLLITAPSSSSSSLESSASALDRRAPTRNQPQAPGVEASGAGEARASTGSSDSSPGGHGTQVNVTCIVNVCSSSDHSSQCSSQASSTMGDTDSSPSESPKDEQVPFSKEECAFRSQLETPETLLGSTEEKPLPLGVPDAGMKPS	no binding	no binding	
p13^suc1 -agarose (other) SKSGVPRLLTASERERLEPFIDQIHYSPRYADDEYEYRHVMLPKAMLKAIPTDYFNPETGTLRILQEEEWRGLGITQSLGWEMYEVHVPEPHILLFKREKDYQMKFSQQRGG			no binding
